One protein from article doi:10.1101/569251 (bioRxiv, 2019) can be followed below.

This data set deals with the molecule itself.

B1: SEPT7 (residues 29-437) with N-terminal His-tag (domain or fragment, human, UniProt Q16181-1 29-437, looked up)
chain: GYVGFANLPNQVYRKSVKRGFEFTLMVVGESGLGKSTLINSLFLTDLYSPEYPGPSHRIKKTVQVEQSKVLIKEGGVQLLLTIVDTPGFGDAVDNSNCWQPVIDYIDSKFEDYLNAESRVNRRQMPDNRVQCCLYFIAPSGHGLKPLDIEFMKRLHEKVNIIPLIAKADTLTPEECQQFKKQIMKEIQEHKIKIYEFPETDDEEENKLVKKIKDRLPLAVVGSNTIIEVNGKRVRGRQYPWGVAEVENGEHCDFTILRNMLIRTHMQDLKDVTNNVHYENYRSRKLAAVTYNGVDNNKNKGQLTKSPLAQMEEERREHVAKMKKMEMEMEQVFEMKVKEKVQKLKDSEAELQRRHEQMKKNLEAQHKELEEKRRQFEDEKANWEAQQRILEQQNSSRTLEKNKKKGKIF
As for B1, the binding result is “binds”.
